Changes are numbered by the printed parent chain. Names may count otherwise.
B1: ECSIT_(CTER-W324A) (domain or fragment)
chain: QDPVELAMFGLRHMEPDLSARVTIYQVPLPKDSTGAADPPQPHIVGIQSPDQQAALARHNPARPVFVEGPFSLWLRNKCVYYHILRADLLPPEEREVEETPEEANLYYPMQLDLEYVRSGWDNYEFDINEVEEGPVFAMCMAGAHDQATMAKWIQGLQETNPTLAQIPVVFRLAGSTRELQTSSAGLEEPPLPEDHQEEDDNLQRQQQGQS
B2: ECSIT_(CTER-Y327F) (domain or fragment)
chain: B1 chain with A104W, Y107F
B3: ECSIT_(CTER-Y328A) (domain or fragment)
chain: B1 chain with A104W, Y108A
B4: ACAD9WT (res. 38-621) (enzyme)
chain: AFAKELFLGKIKKKEVFPFPEVSQDELNEINQFLGPVEKFFTEEVDSRKIDQEGKIPDETLEKLKSLGLFGLQVPEEYGGLGFSNTMYSRLGEIISMDGSITVTLAAHQAIGLKGIILAGTEEQKAKYLPKLASGEHIAAFCLTEPASGSDAASIRSRATLSEDKKHYILNGSKVWITNGGLANIFTVFAKTEVVDSDGSVKDKITAFIVERDFGGVTNGKPEDKLGIRGSNTCEVHFENTKIPVENILGEVGDGFKVAMNILNSGRFSMGSVVAGLLKRLIEMTAEYACTRKQFNKRLSEFGLIQEKFALMAQKAYVMESMTYLTAGMLDQPGFPDCSIEAAMVKVFSSEAAWQCVSEALQILGGLGYTRDYPYERILRDTRILLIFEGTNEILRMYIALTGLQHAGRILTTRIHELKQAKVSTVMDTVGRRLRDSLGRTVDLGLTGNHGVVHPSLADSANKFEENTYCFGRTVETLLLRFGKTIMEEQLVLKRVANILINLYGMTAVLSRASRSIRIGLRNHDHEVLLANTFCVEAYLQNLFSLSQLDKYAPENLDEQIKKVSQQILEKRAYICAHPLDRTC
B5: ACAD9_(A184S/SR194TS) (enzyme)
chain: B4 chain with A147S, S157T, R158S
B6: ACAD9_(A184S) (enzyme)
chain: B4 chain with A147S
B7: ACAD9_(VLCAD) (enzyme)
chain: B4 chain with L364M, L367M, Y369F, T370M
B8: ACAD9_(S191A) (enzyme)
chain: B4 chain with S154A
B9: VLCADWT (res. 72-655) (enzyme)
chain: SFAVGMFKGQLTTDQVFPYPSVLNEEQTQFLKELVEPVSRFFEEVNDPAKNDALEMVEETTWQGLKELGAFGLQVPSELGGVGLCNTQYARLVEIVGMHDLGVGITLGAHQSIGFKGILLFGTKAQKEKYLPKLASGETVAAFCLTEPSSGSDAASIRTSAVPSPCGKYYTLNGSKLWISNGGLADIFTVFAKTPVTDPATGAVKEKITAFVVERGFGGITHGPPEKKMGIKASNTAEVFFDGVRVPSENVLGEVGSGFKVAMHILNNGRFGMAAALAGTMRGIIAKAVDHATNRTQFGEKIHNFGLIQEKLARMVMLQYVTESMAYMVSANMDQGATDFQIEAAISKIFGSEAAWKVTDECIQIMGGMGFMKEPGVERVLRDLRIFRIFEGTNDILRLFVALQGCMDKGKELSGLGSALKNPFGNAGLLLGEAGKQLRRRAGLGSGLSLSGLVHPELSRSGELAVRALEQFATVVEAKLIKHKKGIVNEQFLLQRLADGAIDLYAMVVVLSRASRSLSEGHPTAQHEKMLCDTWCIEAAARIREGMAALQSDPWQQELYRNFKSISKALVERGGVVTSNPLGF
B10: VLCAD_(ACAD9) (enzyme)
chain: B9 chain with M366L, M369L, F371Y, M372T

Assays:
ACAD9WT (res. 38-621) = molecular target: B4; assay: mass photometry
dynamic light scattering = molecular target: the molecule itself; assay: dynamic light scattering
mass photometry = molecular target: the molecule itself; assay: mass photometry

B1: binds (ACAD9WT (res. 38-621)).

B2: binds (ACAD9WT (res. 38-621)).

B3: binds (ACAD9WT (res. 38-621)).

B4 was tested, and the “stoichiometry N” value (dynamic light scattering) was 2.

In the case of B5, the “stoichiometry N” value (mass photometry) is reported as 2.

B6: binds (dynamic light scattering).

In the case of B7, the “stoichiometry N” value (mass photometry) is reported as 2.

B8 was tested, and the “stoichiometry N” value (mass photometry) was 2.

In the case of B9, the “stoichiometry N” value (mass photometry) is reported as 2.

With B10 the “stoichiometry N” value (mass photometry) was 2.

From article doi:10.1101/2023.02.23.529646 (bioRxiv, 2023)
